The test concerns HeLa cervix adenocarcinoma cell line. Briefly: Anti-proliferative assay, HeLa. The class given is cell-based, human.

The record followed here is patent US9982028B2, “Recombinant human interferon-like proteins” (Novagen Holding Corporation, priority 2007, dated 2018).

B1: Novaferon: novel recombinant non-naturally occurring human interferon-like protein, 166 amino acids (SEQ ID No: 2), from Type I interferon shuffling library, expressed in E. coli (protein)
chain: CNLSQTHSLGSKRTLMLLAQMGKISLFSCLKDRHDFEFPQEEFDGNQFQKAQAISVLHELIQQTFNLFSTKESSAAWDEGLLDKFRTELYRQLNDLEACMMQEVGVEETPLMNADSILAVKKYFQRITLYLMEKKYSPCAWEVVRVEIMRSLSFSTNLQKRLRGKD
Regarding B1, the “Fold (Novaferon/HuIFN-α2b), increased tumor cell inhibition” value worked out at 141 fold.
